Assay results: patent publication US20260109758A1 (BIOSION, published 2026)

What was measured:
[1] = biological target: human IL4Rα on HEK293T-IL4R/STAT6/STAT6-Luc LB2 cells (human, UniProt P24394 26-825); experiment: cell-based or functional assay
[2] = biological target: T1, human IL4Rα expressed on 293F-IL4Rα cell surface (human, UniProt P24394 26-825); experiment: cell-based blocking FACS on 293F-IL4Rα cells; blocked ligand biotin human IL4
T1 construct: whole, on cells; also called human IL4Rα-expressing cells; cell surface IL4R

[3] = biological target: T2, recombinant human TSLP-his (human, UniProt Q969D9 29-159, biotin-labeled in the ELISAs); experiment: capture ELISA: antibody captured on anti-human IgG Fc F(ab')2, biotin human TSLP-his, SA-HRP
T2 construct: In-house made; not shown: His tag at the C-terminus
Procedure: Briefly, 96-well micro plates were coated with 100 μL 2 μg/mL AffiniPure F(ab′)₂ Fragment Goat Anti-Human IgG, Fey fragment specific (Jackson Immuno Research, Cat #109-006-008) in PBS and incubated overnight at 4° C. Plates were washed 4 times with wash buffer (PBS+0.05% Tween-20, PBST) and then blocked with 200 μL/well blocking buffer (5% w/v non-fatty milk in PBST) for 2 hours at 37° C. […] After the final wash, the plates were incubated with 100 μL/well TMB (Innoreagents). The reaction was stopped 15 minutes later at room temperature with 50 μL/well 1M H₂SO₄, and the absorbance of each well was read on a microplate reader using dual wavelength mode with 450 nm for TMB and 630 nm as the reference wavelength. The OD (450-630) values were plotted against antibody concentration. Data was analyzed using Graphpad Prism and EC₅₀ values were reported.

[4] = biological target: T3, recombinant human IL4Rα-his (human, UniProt P24394 26-231, limits assumed, biotin-labeled in the capture ELISA); experiment: competitive ELISA: coated human IL4Rα-his, antibody titrated; blocked ligand biotin human IL4
T3 construct: In-house made; not shown: His tag at the C-terminus
Procedure: Briefly, 100 μL human IL4Rα-his proteins (prepared in-house, IL4Rα of SEQ ID NO: 33 with C-terminal His tag) were coated on 96-well micro plates at 2 μg/mL in PBS overnight at 4° C. The next day, plates were washed with wash buffer (PBS+0.05% w/v Tween-20, PBST), and blocked with 5% w/v non-fatty milk in PBST for 2 hours at 37° C. Plates were then washed again using wash buffer. Serially diluted bispecific antibodies or the controls (starting at 100 nM with a 5-fold serial dilution) in 2.5% w/v non-fatty milk in PBST, 100 μL per well, were added to the IL4Rα bound plates, and incubated at 37° C. for 40 minutes. […] Plates were washed again using wash buffer. Thereafter, the plates were added with 100 μL/well of streptavidin conjugated HRP (1:10000 dilution in PBST buffer, Jackson Immunoresearch, Cat #016-030-084) and incubated for 40 minutes at 37° C. Plates were washed again using wash buffer. Finally, TMB was added and the reaction was stopped using 1M H₂SO₄, and the absorbance was read at 450 nm. Data was analyzed using Graphpad Prism and IC₅₀ values were reported.

Inhibition on IL4 induced STAT6 phosphorylation (IC50, nM) [1] | Inhibition on IL13 induced STAT6 phosphorylation (IC50, nM) [1] | IC50 [2] | EC50 [3] | IC50 [4] | Binder
0.0318 nM | 0.0276 nM | 0.168 nM | 0.103 nM | – | BSI-502-004 (bispecific antibody, human IgG1, kappa, hu1C5F12E9-V8 IgG with an anti-IL4R scFv (VL-VH) at the N-terminus of the heavy chain; AQQ and YTE already stand in the entry) heavy: DIQMTQSPSSLSASVGDRVTITCRTSENIYSYLAWYQQKPGKAPKFLVYNAKTLAEGVPSRFSGSGSGTDFTLTISSLQPEDFATYYCQHYYGPPTWTFGQGTKVEIKGGGGSGGGGSGGGGSGGGGSEVQLVESGGGLVQPGGSLRLSCAASGFTFSTYGMSWVRQAPGKGLVWVATINSNGGSTSYPDSVKGRFTISRDNAKNTLYLQMNSLRAEDTAVYYCARFFRFRNAMDYWGQGTLVTVSSGGGGSGGGGSQVQLVQSGAEVKKPGASVKVSCKASGYTFTTYWMHWVRQAPGQGLEWMGVIDPSDSDTTYNQKFKGRVTMTRDTSTSTVYMELSSLRSEDTAVYYCTRSLDGYYDYWGQGTLVTVSSASTKGPSVFPLAPSSKSTSGGTAALGCLVKDYFPEPVTVSWNSGALTSGVHTFPAVLQSSGLYSLSSVVTVPSSSLGTQTYICNVNHKPSNTKVDKKVEPKSCDKTHTCPPCPAPEAQGGPSVFLFPPKPKDTLYITREPEVTCVVVDVSHEDPEVKFNWYVDGVEVHNAKTKPREEQYNSTYRVVSVLTVLHQDWLNGKEYKCQVSNKALPAPIEKTISKAKGQPREPQVYTLPPSRDELTKNQVSLTCLVKGFYPSDIAVEWESNGQPENNYKTTPPVLDSDGSFFLYSKLTVDKSRWQQGNVFSCSVMHEALHNHYTQKSLSLSPG light: DIQMTQSPSSLSASVGDRVTITCRPTENIYSYLAWYQQKPGKAPKLLIYFARTLAEGVPSRFSGSGSGTDFTLTISSLQPEDFATYYCQHHYGTPWTFGGGTKVEIKRTVAAPSVFIFPPSDEQLKSGTASVVCLLNNFYPREAKVQWKVDNALQSGNSQESVTEQDSKDSTYSLSSTLTLSKADYEKHKVYACEVTHQGLSSPVTKSFNRGEC
0.00703 nM | 0.0289 nM | 0.137 nM | 0.169 nM | 0.248 nM | BSI-502-001 (bispecific antibody, human IgG1, kappa, huC2C1A1A1-V15 IgG with an anti-TSLP scFv (hu1C5F12E9-V8, VH-VL) at the C-terminus of the heavy chain) heavy: EVQLVESGGGLVQPGGSLRLSCAASGFTFSTYGMSWVRQAPGKGLVWVATINSNGGSTSYPDSVKGRFTISRDNAKNTLYLQMNSLRAEDTAVYYCARFFRFRNAMDYWGQGTLVTVSSASTKGPSVFPLAPSSKSTSGGTAALGCLVKDYFPEPVTVSWNSGALTSGVHTFPAVLQSSGLYSLSSVVTVPSSSLGTQTYICNVNHKPSNTKVDKKVEPKSCDKTHTCPPCPAPEAQGGPSVFLFPPKPKDTLYITREPEVTCVVVDVSHEDPEVKFNWYVDGVEVHNAKTKPREEQYNSTYRVVSVLTVLHQDWLNGKEYKCQVSNKALPAPIEKTISKAKGQPREPQVYTLPPSRDELTKNQVSLTCLVKGFYPSDIAVEWESNGQPENNYKTTPPVLDSDGSFFLYSKLTVDKSRWQQGNVFSCSVMHEALHNHYTQKSLSLSPGKGGGGSGGGGSQVQLVQSGAEVKKPGASVKVSCKASGYTFTTYWMHWVRQAPGQGLEWMGVIDPSDSDTTYNQKFKGRVTMTRDTSTSTVYMELSSLRSEDTAVYYCTRSLDGYYDYWGQGTLVTVSSGGGGSGGGGSGGGGSGGGGSDIQMTQSPSSLSASVGDRVTITCRPTENIYSYLAWYQQKPGKAPKLLIYFARTLAEGVPSRFSGSGSGTDFTLTISSLQPEDFATYYCQHHYGTPWTFGGGTKVEIK light: DIQMTQSPSSLSASVGDRVTITCRTSENIYSYLAWYQQKPGKAPKFLVYNAKTLAEGVPSRFSGSGSGTDFTLTISSLQPEDFATYYCQHYYGPPTWTFGQGTKVEIKRTVAAPSVFIFPPSDEQLKSGTASVVCLLNNFYPREAKVQWKVDNALQSGNSQESVTEQDSKDSTYSLSSTLTLSKADYEKHKVYACEVTHQGLSSPVTKSFNRGEC
0.0129 nM | 0.031 nM | 0.144 nM | 0.369 nM | 0.299 nM | BSI-502-002 (bispecific antibody, human IgG1, kappa, huC2C1A1A1-V15 IgG with an anti-TSLP scFv (VL-VH) at the C-terminus of the heavy chain; AQQ and YTE already stand in the entry) heavy: EVQLVESGGGLVQPGGSLRLSCAASGFTFSTYGMSWVRQAPGKGLVWVATINSNGGSTSYPDSVKGRFTISRDNAKNTLYLQMNSLRAEDTAVYYCARFFRFRNAMDYWGQGTLVTVSSASTKGPSVFPLAPSSKSTSGGTAALGCLVKDYFPEPVTVSWNSGALTSGVHTFPAVLQSSGLYSLSSVVTVPSSSLGTQTYICNVNHKPSNTKVDKKVEPKSCDKTHTCPPCPAPEAQGGPSVFLFPPKPKDTLYITREPEVTCVVVDVSHEDPEVKFNWYVDGVEVHNAKTKPREEQYNSTYRVVSVLTVLHQDWLNGKEYKCQVSNKALPAPIEKTISKAKGQPREPQVYTLPPSRDELTKNQVSLTCLVKGFYPSDIAVEWESNGQPENNYKTTPPVLDSDGSFFLYSKLTVDKSRWQQGNVFSCSVMHEALHNHYTQKSLSLSPGKGGGGSGGGGSDIQMTQSPSSLSASVGDRVTITCRPTENIYSYLAWYQQKPGKAPKLLIYFARTLAEGVPSRFSGSGSGTDFTLTISSLQPEDFATYYCQHHYGTPWTFGGGTKVEIKGGGGSGGGGSGGGGSGGGGSQVQLVQSGAEVKKPGASVKVSCKASGYTFTTYWMHWVRQAPGQGLEWMGVIDPSDSDTTYNQKFKGRVTMTRDTSTSTVYMELSSLRSEDTAVYYCTRSLDGYYDYWGQGTLVTVSS light: DIQMTQSPSSLSASVGDRVTITCRTSENIYSYLAWYQQKPGKAPKFLVYNAKTLAEGVPSRFSGSGSGTDFTLTISSLQPEDFATYYCQHYYGPPTWTFGQGTKVEIKRTVAAPSVFIFPPSDEQLKSGTASVVCLLNNFYPREAKVQWKVDNALQSGNSQESVTEQDSKDSTYSLSSTLTLSKADYEKHKVYACEVTHQGLSSPVTKSFNRGEC
